Data as given in paper PMC2175248.

Target: myc–E4orf4 (adenovirus 2 (Ad2))
Assay: co-IP

With “v-src (from UniProt P00524 1-526) (enzyme)” the percent of v-src of the P2 fraction recovered in myc–E4orf4 immune complexes was < 10%.
